# Patent US20250281598
# Legend:
# [1] = tested on: 2G12 (anti-HIV gp120 broadly neutralizing antibody); test: pulldown; conditions: 2'-F pyrimidines, qPCR bead assay as glyco-RNA/DNA hybrid
# [2] = tested on: 2G12 (anti-HIV gp120 broadly neutralizing antibody); test: filter; conditions: 2'-F pyrimidines, every U is 2'-F-5-ethynyl-U clicked to Man9-cyclohexyl azide (3 glycans)
# [3] = tested on: 2G12 (anti-HIV gp120 broadly neutralizing antibody); test: FP filter; conditions: 2'-F pyrimidines; every U is 2'-F-5-ethynyl-U clicked to Man9-cyclohexyl azide (4 glycans); nitrocellulose filter binding, 32P RNA not gel purified; 20 mM Tris pH 7.5, 150 mM NaCl, 2 mM MgSO4; Fbmax 7.0%
sequence,measurement,setting,value
GGAGAGAAGGAGGGAAGAGAGAAAAAAAACAGAGGGAACCCAGGUGAUUGGGGCAAGCGACACAAAGCCCGG [15F3-M1],Kd,"[1]; every U is 2'-F-5-ethynyl-U clicked to Man9-cyclohexyl azide (3 glycans), Fbmax 1.1%",31 nM
GGAGAGAAGGAGGGAAGAGAGAAAAAAUCGACGGAACAGGGGCCCCCUGUGGAAAGCGACACAAAGCCCGG [15F1],Kd,"[1]; every U is 2'-F-5-ethynyl-U clicked to Man9-cyclohexyl azide (3 glycans), room temperature, Fbmax 7.9%",40 nM
same,Kd,"[2]; 20 mM Tris pH 7.5, 150 mM NaCl, 2 mM MgSO4, not gel purified, Fbmax 23%",40 nM
GGAGAGAAGGAGGGAAGAGAGAAAAAAAACAUAGGGAACCCAGGUGAUUGGGGCAAGCGACACAAAGCCCGG [15F3],Kd,"[1]; every U is 2'-F-5-ethynyl-U clicked to Man9-cyclohexyl azide (4 glycans), room temperature, Fbmax 3.8%",19 nM
same,Kd,[3],13 nM
GGAGAGAAGGAGGGAAGAGAGAAAAAAAAAAGCGCCCAGGUGAUUGGGCGCAAGCGACACAAAGCCCGG [15F3-M1-Mod],Kd,"[2]; gel purified and refolded, Fbmax 51%",36 nM
